Measured values from patent US20260108588A1, “A COMPLEX COMPRISING A ALPHA-LACTALBUMIN AND A FATTY ACID OR LIPID FOR USE IN THE TREATMENT OR PREVENTION OF CANCER” (LINNANE PHARMA AB, priority 2022, published 2026).

System: intestine of healthy C57BL/6 mice
Experiment: Real-time in vivo fluorescence imaging of BAMLET in healthy mice
Conditions: oral gavage

BAMLET
BAMLET retention in the intestines of healthy mice: lack of BAMLET retention
